Source: the supplement of paper PMC11780869

Tested on: Bacillus subtilis
Test: cleaved RNA product abundance (RNA/gDNA barcode ratio) relative to median wild-type variant (ratio to wild type); higher = more accumulation of the downstream cleavage product
In short: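 Cleaved product abundance was measured with barcoded reporter mRNAs (truncated aprE or tetM) carrying mutagenized RNase Y cleavage-site windows in the B. subtilis chromosome. Cultures in LB at 37°C grew from OD600 0.0003 to 0.3. Gel-selected cleaved RNA was reverse transcribed and barcode-sequenced with genomic DNA barcodes, and the RNA:gDNA barcode ratio per construct was scaled to the median construct bearing the unmutated site.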

[1] = experiment (reporter, strain, medium): exp 4a: truncated aprE reporter, strain BJT201 with 2% xylose (RNase J1 expressed), cleavage site: cggR-gapA (positions -7 to +36 mutated)
[2] = experiment (reporter, strain, medium): exp 8a: truncated aprE reporter, strain BJT201 with 2% xylose (RNase J1 expressed), cleavage site: glnRA (positions -5 to +31 mutated)
[3] = experiment (reporter, strain, medium): exp 2b: truncated aprE reporter, strain BJT200, cleavage site: cggR-gapA (positions -7 to +36 mutated)
[4] = experiment (reporter, strain, medium): exp 6: tetM reporter, strain 168, cleavage site: cggR-gapA (positions -7 to +36 mutated)

Sequence | cleaved RNA product abundance [1] | cleaved RNA product abundance [2] | further results
ACAGACGAAGGAGCCGCAAAGAAGTTATTAAGGGTTGTATAATCCCTCAATATAAATATCTCTCACTTATTTAAA | 0.309 | – | –
CGACATGTCCCGCTTCTTTCATTAATCCGTTAGCAACTTTATTGCTATATACATTTACCTTTTAAGAGGAGGAAT | – | 0.922 | –
ACAGACGAAGGAGCCGCAAAGAAGTTATGAAGGGATGAATAATCGCTCAATATAAATATCTCTCACTTATTTAAA | 0.0808 | – | –
ACAGACGAAGGAGCCGCAAAGAAGTGATTAAGGGATGAATAATACCTCAATATAAATATCTCTCACTTATTTAAA | 0.0889 | – | cleaved RNA product abundance [3]: 0.105
ACAGACGAAGGAGCCGCAAAGAAGTTATTAAGTGATGAATAATCCTTCAATATAAATATCTCTCACTTATTTAAA | 0.145 | – | cleaved RNA product abundance [3]: 0.112
CGACATGTCCCGCTTCTTTCATTAATCTGTTAGCAACTGTTTTGGTATATACATTTACCTTTTAAGAGGAGGAAT | – | 0.264 | –
ACAGACGAAGGAGCCGCAAAGAAGTTATTAAGGGTTGAATAATCCCTCCATATAAATATCTCTCACTTATTTAAA | 0.0987 | – | –
ACAGACGAAGGAGCCGCAAATAAGTTATTAAGGGATGAATACTCCCTCAATATAAATATCTCTCACTTATTTAAA | 0.538 | – | cleaved RNA product abundance [3]: 0.682
CGACATGTCCCGCTTCTTTCATTAATCCGTAAACAACTGTTTTGCTATATACATTTACCTTTTAAGAGGAGGAAT | – | 0.159 | –
ACAGACGAAGGAGCCGCAAAGAATTTATTAAGGGATGAATAATCCCTCAATATAAATATCTCTCACTTATTAAAG | 0.836 | – | –
ACAGACGAAGGAGCCGCAAAGAAGTTACTAAGGGATGAATAATCCCTCAAAATAAATATCTCTCACTTATTTAAA | 0.288 | – | –
CGACATGTCCCGCTTCTTTCATTAATCCGTTAGCAACTGTTTTGCTATATACATTTACGTTTTAAGAGGAGGAAT | – | 1.12 | –
ACAGACGAAGGAGCCGCAAAGAAGTGATTAAGGGATGAATAATCCCGCAATATAAATATCTCTCACTTATTTAAA | 0.124 | – | –
CGACATGTCCCGCTTCTTTCATTAATCCGTTAGCAACTGTTTTGCTAAATACATTTTCCTTTTAAGAGGAGGAAT | – | 0.232 | –
CGACATGTCCCGCTTCTTTCATTACTCCGTTAGCAACTCTTTTGCTATATACATTTACCTTTTAAGAGGAGGAAT | – | 1.33 | –
ACAGACGAAGGAGCCGCAAAGAAGTTATCAAGGGATGAATAATCCATCAATATAAATATCTCTCACTTATTTAAA | 0.321 | – | –
ACAGACGAAGGAGCCGCAAACAAGTTATTTAGGGATGAATAATCCCTCAATATAAATATCTCTCACTTATTTAAA | 0.67 | – | –
CGACATGTCCCGCTTCTTTCATTAATACGTTAGCAACTATTTTGCTATATACATTTACCTTTTAAGAGGAGGAAT | – | 1.33 | –
CGACATGTCCCGCTTCTTTCATTATTCTGTTAGCAACTGTTTTGCTATAAACATTTACCTTTTAAGAGGAGGAAT | – | 0.834 | –
ACAGACGAAGGAGCCGCAATGTAGTTATTAAGGGATGAATAATCCCTCAATATAAATATCTCTCACTTATTTAAA | 1.43 | – | –
ACAGACGAAGGAGCCGCAAAGACGTTATTAAGGGATGAATAATCCCCCAATATAAATATCTCTCACTTATTTAAA | 0.226 | – | –

Sequence | cleaved RNA product abundance [1] | cleaved RNA product abundance [2] | further results
ACAGACGAAGGAGCCGCAAAGAAGTTATTAAGGGAAGAATGATCCCTCAATATAAATATCTCTCACTTATTTAAA | 0.925 | – | –
CGACATGTCCCGCTTCTTTCATTAATCCGTTAGCAACTTGTTTTGCTATATACATTTACCTTTTAAGAGGAGGAA | – | 1.01 | –
CGACATGTCCCGCTTCTTTCATTAATCCGATAGCAACTGCTTTGCTATATACATTTACCTTTTAAGAGGAGGAAT | – | 0.492 | –
ACAGACGAAGGAGCCGCAAAGAAATTATTCAGGGATGAATAATCCCTCAATATAAATATCTCTCACTTATTTAAA | 0.747 | – | cleaved RNA product abundance [3]: 0.575
CGACATGTCCCGCTTCTTTCATTACTCCGTTAGCAACTGTTTTGCTATATGCATTTACCTTTTAAGAGGAGGAAT | – | 0.234 | –
ACAGACGAAGGAGCCGCAAAGAAGTTATTAAGGAATGAATAATCCCTCAATATAAATTTCTCTCACTTATTTAAA | 0.142 | – | cleaved RNA product abundance [3]: 0.114
CGACATGTCCCGCTTCTTTCATTAATCCGTTAGTAACTGTTTTTCTATATACATTTACCTTTTAAGAGGAGGAAT | – | 0.688 | –
CGACATGTCCCGCTTCTTTCATTAATCCGTTAGCAATTGTTTTGCTATATACATTTAACTTTTAAGAGGAGGAAT | – | 1.06 | –
CGACATGTCCCGCTTCTTTCATTAATCCGATAGCAACTGTTTTTCTATATACATTTACCTTTTAAGAGGAGGAAT | – | 0.413 | –
CGACATGTCCCGCTTCTTTCATTAATACGTTAGCAACTGTTTTGCTATATATATTTACCTTTTAAGAGGAGGAAT | – | 1.83 | –
ACAGACGAAGGAGCCGCAAAGAAATTATTAAAGGATGAATAATCCCTCAATATAAATATCTCTCACTTATTTAAA | 0.221 | – | cleaved RNA product abundance [3]: 0.144
CGACATGTCCCGCTTCTTTCATTAATCCGTTAGGAACTGTTTTTCTATATACATTTACCTTTTAAGAGGAGGAAT | – | 0.453 | –
ACAGACGAAGGAGCTGCAAAGAAGTTATTAAGGAATGAATAATCCCTCAATATAAATATCTCTCACTTATTTAAA | – | – | cleaved RNA product abundance [4]: 0.134
CGACATGTCCCGCTTCTTTCATTAATCCGTGAGCAACTGTTTTGCTATACACATTTACCTTTTAAGAGGAGGAAT | – | 0.0879 | –
ACAGACGAAGGAGCCGCAAAGAAGTTATTCAGGGATGAATAATCCGTCAATATAAATATCTCTCACTTATTTAAA | – | – | cleaved RNA product abundance [3]: 0.117
CGACATGTCCCGCTTCTTTCATTAATCCGTTAGCAACTAGTTTGCTATATACATTTACCTTTTAAGAGGAGGAAT | – | 1.29 | –
ACAGACGAAGGAGCCGCAAAGAAGTTATTAAGGGATGAATAATCCCTTAATATAAATATCTCTCACTTATTTAAA | 0.595 | – | cleaved RNA product abundance [3]: 0.782; cleaved RNA product abundance [4]: 0.623
ACAGACGAAGGAGCCGCAAAGAAGTTATTAAGGGATGAATAATCCCTCTATATAAATCTCTCTCACTTATTTAAA | 0.529 | – | –
CGACATGTCCCGCTTCTTTCATTATCCCGTTAGCAACTGTTTTGCTATATACTTTTACCTTTTAAGAGGAGGAAT | – | 0.41 | –
CGACATGTCCCGCTTCTTTCATTAATCCGTGAGCAACTGTTTTGCTATATACATTTACCATTTAAGAGGAGGAAT | – | 0.655 | –
ACAGACGAAGGAGCCGCATAGAAGTTATTAAAGGATGAATAATCCCTCAATATAAATATCTCTCACTTATTTAAA | 0.199 | – | –

Sequence | cleaved RNA product abundance [1] | cleaved RNA product abundance [2] | further results
CGACATGTCCCGCTTCTTTCATTAATCCGTTAACAACTGTTTTACTATATACATTTACCTTTTAAGAGGAGGAAT | – | 0.222 | –
CGACATGTCCCGCTTCTTTCATTAATCCGTTAGCAACTGATTTGCTATATACATTAACCTTTTAAGAGGAGGAAT | – | 1.33 | –
ACAGACGAAGGAGCCGCAAAAAAGTCATTAAGGGATGAATAATCCCTCAATATAAATATCTCTCACTTATTTAAA | 0.37 | – | –
ACAGACGAAGGAGCCGCAAAGAAGTTATTAAGGGATGAATAATCTCACAATATAAATATCTCTCACTTATTTAAA | 0.262 | – | cleaved RNA product abundance [3]: 0.18
ACAGACGAAGGAGCCGCATAGAAGTTATTAAGGGATGAATAATCCGTCAATATAAATATCTCTCACTTATTTAAA | 0.235 | – | –
ACAGACGAAGGAGCCGCAAAGGAGTTATTAATGGATGAATAATCCCTCAATATAAATATCTCTCACTTATTTAAA | 0.114 | – | –
CGACATGTCCCGCTTCTTTCATTAATCCGTTAGCCACTGTTTTGTTATATACATTTACCTTTTAAGAGGAGGAAT | – | 0.247 | –
ACAGACGAAGGAGCCGCAAAGAAGTTATTAAGGGATGAATAATCCATCAATATACATATCTCTCACTTATTTAAA | 0.296 | – | –
ACAGACGAAGGAGCCGCAAAGAAATTATTAAGGGATGAATAATCCCTCTATATAAATATCTCTCACTTATTTAAA | 0.319 | – | cleaved RNA product abundance [3]: 0.418
CGACATGTCCCGCTTCTTTCATTAATCCGATAGCAACTGTTTTGCTATATACATTTACTTTTTAAGAGGAGGAAT | – | 0.547 | –
ACAGACGAAGGAGCCGCAAAGAACTTATTAAGGGATGAATAATCCCCCAATATAAATATCTCTCACTTATTTAAA | 0.25 | – | –
ACAGACGAAGGAGCCGCAAAGAAGTTATTAAGGGATGAATAATCCCTCAGTATATATATCTCTCACTTATTTAAA | 0.242 | – | –
ACAGACGAAGGAGCCGCAAAGAAGTTATTAAGGGATGAATAATTCCTCAAAATAAATATCTCTCACTTATTTAAA | 0.331 | – | –
ACAGACGAAGGAGCCGCAAAGAAATTACTAAGGGATGAATAATCCCTCAATATAAATATCTCTCACTTATTTAAA | 0.247 | – | –
ACAGACGAAGGAGCCGCAAAGAAGTTATTAAGGGATGAATAAACCCTCAATATAAATGTCTCTCACTTATTTAAA | 0.39 | – | cleaved RNA product abundance [3]: 0.292
ACAGACGAAGGAGCCGCAAAGAAGTTATTAAAGGATGAATAATCCCTCCTTATAAATATCTCTCACTTATTTAAA | 0.0791 | – | –
ACAGACGAAGGAGCCGCAAAGAAGTTATTAAGAGATGAATAATTCCTCAATATAAATATCTCTCACTTATTTAAA | 0.106 | – | cleaved RNA product abundance [3]: 0.0877
CGACATGTCCCGCTTCTTTCATTAATCCGTTAGCAACTTTTTTACTATATACATTTACCTTTTAAGAGGAGGAAT | – | 0.744 | –
CGACATGTCCCGCTTCTTTCATTAATCCATTAGCAACTGTTTTGCAATATACATTTACCTTTTAAGAGGAGGAAT | – | 0.408 | –
